Tests used:
[1] = biological target: the molecule itself; assay: Western blot of tissue extracts; extracts of human liver tissue (three ASH, one HCC) on a gel, blotted with anti-cytokeratin 8 (C51)
[2] = biological target: the molecule itself; assay: crystal structure; peptide microcrystals grown by hanging drop vapor diffusion; SGMGGIT: 0.1 M phosphate/citrate pH 4.2, 40% ethanol, 5% PEG 1000; SGMGCIT: 0.2 M sodium citrate, 0.1 M HEPES pH 7.5, 20% 2-propanol; GGYAGAS: 2.5 M NaCl, 100 mM sodium acetate pH 4.5, 0.2 M lithium sulfate; data at 100 K
[3] = biological target: the molecule itself; assay: thioflavin T fluorescence on cooling (reversible aggregation, phase separation); same sample concentrations as the aggregation assay; held at 37 °C, cooled to 4 °C for 60 minutes, warmed back to 37 °C
[4] = biological target: the molecule itself; assay: X-ray fiber powder diffraction of aggregates; aggregated samples centrifuged, exchanged into water, dried between capillaries; cross-beta pattern

Row | Protein | binding result [2] | binding result [3] | also measured
1 | KRT8 in human liver tissue extracts (natural protein, human (endogenous in liver tissue), UniProt P05787 1-483, looked up, keratin-8 (KRT8), endogenous in human liver; monomer band at 52 KDa; also called keratin-8; cytokeratin 8; source: endogenous, extracts of human liver tissue (ASH or HCC)) MSIRVTQKSYKVSTSGPRAFSSRSYTSGPGSRISSSSFSRVGSSNFRGGLGGGYGGASGMGGITAVTVNQSLLSPLVLEVDPNIQAVRTQEKEQIKTLNNKFASFIDKVRFLEQQNKMLETKWSLLQQQKTARSNMDNMFESYINNLRRQLETLGQEKLKLEAELGNMQGLVEDFKNKYEDEINKRTEMENEFVLIKKDVDEAYMNKVELESRLEGLTDEINFLRQLYEEEIRELQSQISDTSVVLSMDNSRSLDMDSIIAEVKAQYEDIANRSRAEAESMYQIKYEELQSLAGKHGDDLRRTKTEISEMNRNISRLQAEIEGLKGQRASLEAAIADAEQRGELAIKDANAKLSELEAALQRAKQDMARQLREYQELMNVKLALDIEIATYRKLLEGEESRLESGMQNMSIHTKTTSGYAGGLSSAYGGLTSPGLSYSLGSSFGSGAGSSSFSRTSSSRAVVVKKIETRDGKLVSESSDVLPK |  |  | stoichiometry N [1]: 2
2 | GGYAGAS (G55A is found in people with cryptogenic liver disease; Crystallised as an anti-parallel class-6 steric zipper; also called 52GGYAGAS58; source: synthetic peptide, bought: GenScript) [KRT8_(52–58)-G55A segment GGYAGAS] | binds |  | 
3 | SGMGCIT (G62C is found in people with cryptogenic liver disease; Crystallised as a class-2 parallel steric zipper with isopropanol; also called 58SGMGCIT64; KRT8-G62C segment; source: synthetic peptide, bought: GenScript) [KRT8_(58–64) G62C segment SGMGCIT] | binds |  | 
4 | SGMGGIT (keratin-8 (KRT8), human, head domain segment, residues 58-64; Crystallised as an amyloid-like fibril of stacked identical strands (anti-parallel class-7 steric zipper) with PEG 1000 and ethanol; also called 58SGMGGIT64; source: synthetic peptide, bought: GenScript) [KRT8_(58–64) wild-type segment SGMGGIT] | binds |  | 
5 | FUS_(1–214), wild type, with N-terminal mCherry (domain or fragment, human, UniProt P35637 1-214, looked up, FUS, human, residues 1-214; also called wild-type FUS; source: bacterial cultures, purified (Ni-NTA)) MASNDYTQQATQSYGAYPTQPGQGYSQQSSQPYGQQSYSGYSQSTDTSGYGQSSYSSYGQSQNTGYGTQSTPQGYGSTGGYGSSQSSQSSYGQQSSYPGYGQQPAPSSTSGSYGSSSQSSSYGQPQSGSYSQQPSYGGQQQSYGQQQSYNPPQGYGQQNQYNSSSGGGGGGGGGGNYGQDQSSMSSGGGSGGGYGNQDQSGGGGSGGYGQQDRG |  | binds | 
6 | KRT8_(1–90) Y54H with N-terminal mCherry (domain or fragment, human, UniProt P05787 1-90, looked up, keratin-8 (KRT8), human, head domain, residues 1-90, variant Y54H; Variant found in people with cryptogenic liver disease; source: bacterial cultures, purified (Ni-NTA)) MSIRVTQKSYKVSTSGPRAFSSRSYTSGPGSRISSSSFSRVGSSNFRGGLGGGHGGASGMGGITAVTVNQSLLSPLVLEVDPNIQAVRTQ |  |  | binding result [4]: binds
7 | KRT8_(1–90) G62C with N-terminal mCherry (domain or fragment, human, UniProt P05787 1-90, looked up, keratin-8 (KRT8), human, head domain, residues 1-90, variant G62C; Variant found in people with cryptogenic liver disease; source: bacterial cultures, purified (Ni-NTA)) MSIRVTQKSYKVSTSGPRAFSSRSYTSGPGSRISSSSFSRVGSSNFRGGLGGGYGGASGMGCITAVTVNQSLLSPLVLEVDPNIQAVRTQ |  | binds | 
8 | KRT8_(1–90) G55A with N-terminal mCherry (domain or fragment, human, UniProt P05787 1-90, looked up, keratin-8 (KRT8), human, head domain, residues 1-90, variant G55A; Variant found in people with cryptogenic liver disease; source: bacterial cultures, purified (Ni-NTA)) MSIRVTQKSYKVSTSGPRAFSSRSYTSGPGSRISSSSFSRVGSSNFRGGLGGGYAGASGMGGITAVTVNQSLLSPLVLEVDPNIQAVRTQ |  |  | binding result [4]: binds
9 | KRT8_(1–90), head domain of keratin-8, wild type, with N-terminal mCherry (domain or fragment, human, keratin-8 (KRT8), human, head domain, residues 1-90 as stated; No removal of mCherry or the His tag is described; also called WT KRT8_(1-90); wild-type KRT8; source: bacterial cultures, purified (Ni-NTA)) SIRVTQKSYKVSTSGPRAFSSRSYTSGPGSRISSSSFSRVGSSNFRGGLGGGYGGASGMGGITAVTVNQSLLSPLVLEVDPNIQAVRTQ |  | binds | 
